Columns and labels:
Δ2 CD55 IRES GFP = experiment: flow cytometry on cells
[1] = target: recombinant Fc-tagged CD55 (UniProt P08174); experiment: SPR; Biacore T200, 25°C; CD55-Fc immobilized on a Protein G chip, tetramers or monomers as analyte; 150mM NaCl, 0.05% BSA, 0.05% Tween-20, pH 7,5; KD calculated from kon and koff; biological duplicate
Sequence of UniProt P08174 (P08174 35-353): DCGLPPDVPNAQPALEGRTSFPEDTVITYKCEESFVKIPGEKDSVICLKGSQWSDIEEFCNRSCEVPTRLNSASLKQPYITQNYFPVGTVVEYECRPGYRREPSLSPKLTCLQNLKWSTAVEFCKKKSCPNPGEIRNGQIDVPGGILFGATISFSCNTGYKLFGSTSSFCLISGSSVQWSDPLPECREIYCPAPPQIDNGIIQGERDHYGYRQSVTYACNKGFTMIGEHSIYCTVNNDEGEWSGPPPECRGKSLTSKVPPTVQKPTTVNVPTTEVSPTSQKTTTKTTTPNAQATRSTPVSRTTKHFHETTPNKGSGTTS

- reduction of the interaction against full length CD55 (Δ2 CD55 IRES GFP): 50%
- Kd [1]: 1.4 µM
Substance: HLA-C∗07:01-VRIG tetramer (from UniProt P61769 21-119) (peptide-MHC)

From article PMC11209011
